B1: Blt1p-hexahistidine (natural protein, S. pombe, UniProt O74338 1-700, looked up)
chain: MSKSAFTSKSQLKGIDGSFNDPFRQPSMNLPTPPHDDGLPSIPRSTALPNLSNRLSPYSHRNYLPIPEADSRNLEVLNSISLTTGSVVNQINKLYQRSCDNANYLQDLRSLILQTPTAEANATQVTESLNQIQKILQEASSKDREQIVQVIKELNKGNSLEVRRELGNCLAHLKKGTLNIDNALQASLQKYWKELQYFNVSKDKLLSLEESIKLLSARLEETDTPSSTHWIEINAGFKEVGDELSENFQRKQEILSGLQNNVILRTNNRKPVGSDGSNSNFNGGEEQMDSKDQEEIQDYLNSLLSVHEKDGVLLQKFHNSYVQYQKLAVALSKYENFDADKLFQQMNLAKQSNETLLQTLTEQTDQLLSFKETMDSFKFILGPSMENQALQQGILAEQQDLVAQLRDIVLRSETLAENPSNMPGSCLPGASSNTADEFTEQLNLLKNEVARLSAICPSPNSGINASVLTNADNLEKENLLLVNNNAFKVDDRSVSSVALDDHNRQLQMNVEELEGKKADLTSKINRLDKDFVKLNTTYSLLTDQVKTKQLALQEIESRVIRLEERLNMLQKLSMQPAISSSSEFVPIESHPSSSAVVPIEEPKNSIIEKKRVPHNAARNSVNLEVTLPNSKKRFSSFSGSSSKLPVRPSTALTDKRKPSWSRRLAAAIGFSSGSPEKKHVITSSDAGHQRSKSRSFSSKM

Legend:
[1] = molecular target: B1; test: pull-down
[2] = molecular target: the molecule itself; test: AUC

| Binder | percent pulled down from lysate [1] [%] | stoichiometry N [2] |
| --- | --- | --- |
| Cdc15p-mEGFP (natural protein, S. pombe, UniProt Q09822 1-927, looked up) MEVNGVSQSEAAPYVTKSSVKFRDNFWGSEDAGMDALMSRTKSSLSVLESIDEFYAKRASIEREYASKLQELAASSADIPEVGSTLNNILSMRTETGSMAKAHEEVSQQINTELRNKIREYIDQTEQQKVVAANAIEELYQKKTALEIDLSEKKDAYEYSCNKLNSYMRQTKKMTGRELDKYNLKIRQAALAVKKMDAEYRETNELLLTVTREWIDRWTEVCDAFQHIEEYRLEFLKTNMWAYANIISTACVKDDESCEKIRLTLENTNIDEDITQMIQNEGTGTTIPPLPEFNDYFKENGLNYDIDQLISKAPSYPYSSSRPSASASLASSPTRSAFRPKTSETVSSEVVSSPPTSPLHSPVKPVSNEQVEQVTEVELSIPVPSIQEAESQKPVLTGSSMRRPSVTSPTFEVAARPLTSMDVRSSHNAETEVQAIPAATDISPEVKEGKNSENAITKDNDDIILSSQLQPTATGSRSSRLSFSRHGHGSQTSLGSIKRKSIMERMGRPTSPFMGSSFSNMGSRSTSPTKEGFASNQHATGASVQSDELEDIDPRANVVLNVGPNMLSVGEAPVESTSKEEDKDVPDPIANAMAELSSSMRRRQSTSVDDEAPVSLSKTSSSTRLNGLGYHSRNTSIASDIDGVPKKSTLGAPPAAHTSAQMQRMSNSFASQTKQVFGEQRTENSARESLRHSRSNMSRSPSPMLSRRSSTLRPSFERSASSLSVRQSDVVSPAPSTRARGQSVSGQQRPSSSMSLYGEYNKSQPQLSMQRSVSPNPLGPNRRSSSVLQSQKSTSSNTSNRNNGGYSGSRPSSEMGHRYGSMSGRSMRQVSQRSTSRARSPEPTNRNSVQSKNVDPRATFTAEGEPILGYVIALYDYQAQIPEEISFQKGDTLMVLRTQEDGWWDGEIINVPNSKRGLFPSNFVQTV | 23 |  |
| B1 |  | 4 |
| Sid2p-mEGFP (natural protein, S. pombe, UniProt Q09898 1-607, looked up) MNRVNDMSPVEGDLGLQLSSEADKKFDAYMKRHGLFEPGNLSNNDKERNLEDQFNSMKLSPVASSKENYPDNHMHSKHISKLPIASPIPRGLDRSGELSYKDNNHWSDRSSTGSPRWENGSMNLSVEEMEKVVQPKVKRMATICQMFFLDHYFEQLHYLYTRKQRARLFEEQLLKEPDSRRDELVKRYNGRERVYLRKRRTRISHGDFQTITQVGQGGYGSVWLARKRDTKEIVALKIMNKSVLHKMDEIRHVLTERDILTTANSEWLVRLLYAFQDTSNIYLAMEFVPGGDFRTLLSNSGVLRDHHAKFYATEMFLAIDALHQLGYIHRDLKPENFLVGASGHIKLTDFGLSSGIISKKKIESMKIRLQEVNNVVVPERSMRERRQVFRTLLSQDPVYAHSVVGSPDYMAPEVLRGENYNHSVDYWSLGCIMYECLSGFPPFSGSNVNETWSNLKNWRKCFQRPHYDDPRDLEFNWRDDAWDFVCHCITDPKDRFCSLKQVMQHPYFSKIDWKNVRTAYRPPFVPDLNSEIDAGYFDDFTNENDMSKYKEVHEKQAAIANMVNTFNKPKRNAFIGFTFRHQKNSHPTSSSSALSSPLSAPSFGTLL | 22 |  |
| Mob1p-mEGFP (natural protein, S. pombe, UniProt O94360 1-210, looked up) MFGFSNKTAKTFRVRKTEAGTKHYQLRQYAEATLGSGSLMEAVKLPKGEDLNEWIAMNTMDFYTQINMLYGTITEFCTAASCPQMNAGPSYEYYWQDDKIYTKPTRMSAPDYINNLLDWTQEKLDDKKLFPTEIGVEFPKNFRKVIQQIFRRLFRIYAHIYCSHFHVMVAMELESYLNTSFKHFVFFCREFGLMDNKEYAPMQDLVDSMV | 42 |  |
